This note sets out measurements from article PMC4493011, “The Cold Shock Domain of YB-1 Segregates RNA from DNA by Non-Bonded Interactions”.

Holding throughout (conditions): protein: recombinant; single strand
Series [1] addresses T1, YB-1 (full-length) (human, UniProt P67809 1-324). Description: EMSA; apparent Kd, protein concentration at 50% saturation; 7 pmol RNA in 10 ul; 10 mM Hepes-KOH pH 7.6, 100 mM KCl, 30 C, 15 min, 10 ul; 8% native PAGE in TBE, silver staining. Background: Mobility shift assays separate free from complexed probe on a gel.
Series [2] has as its target T2, YB-1 cold shock domain (CSD) (human, UniProt P67809 51-129). Described as above.
In series [3] the target is T1, YB-1 (full-length). Put plainly: EMSA; apparent Kd, protein concentration at 50% saturation; 7 pmol DNA in 10 ul; 10 mM Hepes-KOH pH 7.6, 100 mM KCl, 30 C, 15 min, 10 ul; 8% native PAGE in TBE, silver staining.
Series [4] concerns the target T2, YB-1 cold shock domain (CSD). The description is as above.

T1 sequence (P67809 whole entry, the tested form may be a part): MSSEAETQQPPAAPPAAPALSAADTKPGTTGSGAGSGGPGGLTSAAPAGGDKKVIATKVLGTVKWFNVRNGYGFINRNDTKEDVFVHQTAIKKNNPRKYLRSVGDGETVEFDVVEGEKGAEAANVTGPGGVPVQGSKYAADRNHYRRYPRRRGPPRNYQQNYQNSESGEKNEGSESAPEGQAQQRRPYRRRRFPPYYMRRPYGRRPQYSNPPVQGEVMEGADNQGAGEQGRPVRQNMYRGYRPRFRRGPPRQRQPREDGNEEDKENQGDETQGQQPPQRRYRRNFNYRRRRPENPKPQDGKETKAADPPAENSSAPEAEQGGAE
T2 sequence (P67809 51-129): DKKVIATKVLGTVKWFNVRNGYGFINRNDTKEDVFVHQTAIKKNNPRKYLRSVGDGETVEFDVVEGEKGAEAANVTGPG

On to AGGAUGGGUGAGUGAGGUAG (ssRNA) [G-rich RNA 20-mer], for which the results for the Kd (in the series with YB-1 (full-length) [1]; in series [2]) were 0.3 µM and 2.5 µM, respectively.
In the case of AGGATGGGTGAGTGAGGTAG (ssDNA) [G-rich DNA 20-mer], the Kd came out at 0.6 µM with YB-1 (full-length) [3] and 6 µM in series [4].
